Test in all cases: SEC
Test [1] has as its target Plasmodium falciparum glyceraldehyde 3-phosphate dehydrogenase I209T variant (recombinant) (Plasmodium falciparum) (UniProt Q8IKK7).
In test [2] the target is Plasmodium falciparum glyceraldehyde 3-phosphate dehydrogenase V238A variant (recombinant) (Plasmodium falciparum) (UniProt Q8IKK7).
Test [3] addresses Plasmodium falciparum glyceraldehyde 3-phosphate dehydrogenase, wild type (recombinant) (Plasmodium falciparum) (UniProt Q8IKK7).

Values joined by “and” are separate entries in the source; they are usually repeats but may differ in a detail not shown here. Equal entries are not always repeated.

Take “Plasmodium falciparum glyceraldehyde 3-phosphate dehydrogenase I209T variant (recombinant) (from UniProt Q8IKK7 4-335) (enzyme)”: in test [1], the stoichiometry N was 4 and 2.
For the substance “Plasmodium falciparum glyceraldehyde 3-phosphate dehydrogenase V238A variant (recombinant) (from UniProt Q8IKK7 4-335) (enzyme)”, the stoichiometry N in test [2] is 4 and 2.
For the substance “Plasmodium falciparum glyceraldehyde 3-phosphate dehydrogenase, wild type (recombinant) (from UniProt Q8IKK7 4-335) (enzyme)”, the stoichiometry N in test [3] came to 4.

The values are drawn from paper doi:10.1101/2021.11.05.467329.
